Assay results taken from the nanobody polyreactivity screen of Harvey et al. (2022).

Experiment: yeast display, Sf9 membrane polyspecificity reagent, FACS + sequencing; frameworks hold sequencing errors
Outline: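 After 36–48 hours of galactose induction, yeast (Saccharomyces cerevisiae BJ5465) displaying a synthetic nanobody library were stained at 4 °C for 1 hour with 10% biotinylated, detergent-solubilized Sf9 membrane reagent. Streptavidin microbeads enriched the stained cells before FACS sorting into low and high (top ~1%) gates on anti-HA and streptavidin fluorescence. Each clone's polyreactivity label reflects its gate of origin.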

| Sequence | polyreactivity (PSR sort gate) |
| --- | --- |
| QVQLLETCGGLVHAGCTLRLSCAPSRSTFRYNDMGRYRQAPGKERELDASISWSGGDTYYADSVKGRFTISRDNAKNTVYLQMNSLKPEDTAVYYCDKGNIWISRLMDDWGQGTQVTVSS | low polyreactivity |
| QVQLLETGGGLVQAGGSLRLSCAASGIPFDIYTMGWYIQAPGKERELVAASSYSGGTTYYADSVKGRFTISRDNAKNTVYLQMISLKPEDTAVYYCAAYEGTYFTEVDYWGQGTQVTVSS | low polyreactivity |
| QVQLLETGGGLVQAGGSLRLSCAASGSTFTIYAMGLYRQAPGKEMELVAVITRGSTNYADSVKGRFTISRDNAKNTVYLQMYSLKPEDSAVYYCNARRYGKVVRSRYNYWGQGTQVTVSS | high polyreactivity |
| QVQLQDSGGGLVQAGGSLRLICAASVTIFSYSDLGWYRQAPGKERKFVAGIGFGSNSNFADSVRGRFTISRDNAKNTVYLQMNSLKPEDTAVYYCAAVWFDYSTHRYWGQGTKVTVSS | high polyreactivity |
| QVQLQDSGGVMVLACGSLRLSCAESGYISWSFTMGWYRKAPGKEREFVAGITYGGITYYADSVKGRFTISRDNAKNSVYLQMNRLKPEDTAVYYCAAPQSYPYVYVYWGHGTQVTVSS | high polyreactivity |
| QVQLQEGGGLVQAGGSLRLSCPASGYISSRPAMGCYRQAPGKERAFVATIADGTSTYYADSVKCRFTISRDNAKNTVYLQMNSLKPEDTEVYYCAAAYNTEFYLSYWGQGTQVTVSS | high polyreactivity |
| QVQLQERGGALVQAGGSLRLICAATGNITVTGFMGWYRQSPGKERELVASIAIGGTTYYADSVKGRFSISRDNAKNTVYLQRNSLKQEDTAVSYGAARYLYYAYSYWGQGTQVTVSS | low polyreactivity |
| QVQLQERGGGLVQAGGDLRLSCAASGNIFRDYIMGWYRQAPGKEREFVAGIDRGANTNYADSVKGRFTISRDNAKNTVYLQMNSLKPEDTAVYYCAVHTAIVPDFIYWGQGTQVTVSS | low polyreactivity |
| QVQLQERGGGLVQAGGRLRLSCMASGSILGDRMSWYRQAPGKEHELVATIYDGGITYYADSMKVRFTISRDNANNTVDLQMKSQRPEDTAVYFCGASFEGYRYHVFCGQGTQVTVSS | low polyreactivity |
| QVQLQERGGGLVQAGGTLRLSCAASGSFSADEDMGWYRQAQGKEREFVAGISVGGNTNYADSVKGRFTISRENAKNTVYLQINSLKPEDTAVYYCAVLQDVYDALDYWAQGTQVTVSS | high polyreactivity |
| QVQLQERGGGLVQARGSLRLSCAASGNISYRTNMGWYRPAPGKERELVASIGGGTTNYADSVKGRFTISRDNAKKTVYLQMNSLKPVDTAVYYCAVVGTTQFRHRYWGQGTQVTASS | high polyreactivity |
| QVQLQERGGRLVQAGGSLRLSCAASGSIFTQATMGCDRQAPGKERELVAAINFGSSTYYADSVKGRFTISRDNAKSTVYLQMNSLKPEDTAVYYCAVRALWYDFHDYWGQGTQVTVSS | high polyreactivity |
| QVQLQERGSGLVQAGGSLRLTCAESGAIFPAYLMGWYRQPPGKERELVAGISYGSITYCADSVKGRFNIIRDNAKNTVYLQMNSLKPEDTAVKYCAVWRPGGDEYYYWGQGTQVTVSS | low polyreactivity |
| QVQLQERSGGLVQAGGSLRLSCAASGYIFNNVNMGWYSQSPGKEREFVAAVGSGSSTNYADSVKGRFTISRDNTKNTGYLHMNSLKPEDTAVYYCNAVRRTGGHGDYWGLGTQVTVSS | high polyreactivity |
| QVQLQESAGGLVQAGGSLRLRCSASGYISCDASKGWYRQAPGKERELAASITKGSSTNYADSVKGRFTIRDNAKNSVNLQMNSLKPEDTAVCYCAVTYPYWGDYTYWGQGTQVTVSS | low polyreactivity |
| QVQLQESCGRLVQAGGILRLSCAACGNIFPSAVMGWYRQALGTEREFVATLNSGSNPYYADSVKGRFTISRDNAKNTVYLQLNSLKLEDTAVYYCAAYYKLPAWHTYWGQGTQVTVSS | low polyreactivity |
| QVQLQESDGGLVQAGGSLRLICAASGSISPQYYMGWYRQAPGKEREFVAISKGTTTYYADSVKGRLTISRVNAKNTVYLQMNSLKPEDTAVYCCAAGRWLQKVHAYWDQGTQVTVSS | low polyreactivity |
| QVQLQESDGGLVQAGGSLRLSCAASGSISPQYYMGWYRQAPGKEREFVAISKGTTTYYADSVKGRLTISRVNAKNTVYLQMNSLKPEDTAVYCCAAGRWLQNVHAYWDQGTQVTVSS | low polyreactivity |
| QVQLQESFVGLVQAGGSLRLICAASGNIFPTDRMGWYRQAPGKELEFVATISHGGSTNYADSVKGRFTISRDNAKHTVYLQMNSLKPEDTAVYYCAVWSLGRWRNYYWGQGTQVTVIS | low polyreactivity |
| QVQLQESGCGLVQAGGSLRLSCAASGYISSWYPMGWYRQAPGKEREFVATIAPGATTYYADSVKGRFTISRDYSINTVYLQMNSLKPEDTAVYYCAAGPENNDFYSYWGQGTQVTVSS | low polyreactivity |
| QVQLQESGDGLVQAGGSLRLSCAASGTIFTPHQMGWYRQAPGNEREFVATIDYGSSTNYADSLKGLFTISRDNAKNTMYPQMNSLKPEDTAVYYCANYYWGQGTQVTVSS | low polyreactivity |
| QVQLQESGGGKVHAGGSLRLSCAASGSISYASGMVWYRQAPGKEREFVASIDPGAITNYADSVKGRFTNSHDNAKNTVYLQMNSLKPEDTAVYYCAARVSTTDSHGYWGQGTQVTVSS | high polyreactivity |

| Sequence | polyreactivity (PSR sort gate) |
| --- | --- |
| QVQLQESGGGLEQAGGSLRLSCAASGTNTVLYKMGWFRQAPGKEREFVASINFGTSTYYADSVKGRFTDSRDSAINTVFLHMNSLKPEDTSVYYCAAAYRWQDFYRYWGQGTQVTVSS | low polyreactivity |
| QVQLQESGGGLEQAGGSLRLSCAASGYISDIGTMGWYRQAPGKEREFVATLVVGSTTNYADSVKGRFTISRDNAKNTVYLQPESGRYRGVLLRGWLLAVGKFTYWGQGTQETVSS | low polyreactivity |
| QVQLQESGGGLEQAGGSLRLTCAASGNISVTGFMGWYRQEPGKEREIVASIGIGGTTYYADSVKGRFYISRDNAKNTVYLQMNSLKPEDTAVYYCADRYLYYAYSYWCQGTQVTVSS | low polyreactivity |
| QVQLQESGGGLLQVGGSLRLSCAASGTIFIYGFLGWNRQAPGKERELVASINLGGITNYADSVKGRFTISRDNAKKTVYLQMISLKPEDTAVYYCAAYVVTGQNYGYWGQGTQVTVSS | low polyreactivity |
| QVQLQESGGGLMQAGGSQRLSCAASGSISYYSDMGWYRQAPGKEREFVAGIGYGTTTNYADSVKGRFTTSRDNAKKTVYLQMISIKPEDTAVYYCAAYQGNGYEFYYWGQGTQVTVRS | low polyreactivity |
| QVQLQESGGGLVKAGGSLRLSCAASGNISPRDAMGWYRQAPGEERDLVASNAYSAITYYADCVKGRYTISRDNAKNTVYLQINSLKPEDTEVYYCAVYQFTYPVFPAYWGQGTQVTVSS | low polyreactivity |
| QVQLQESGGGLVKAGGSLRLSCAASGNISPRDAMGWYRQAPGEERDLVASNPYSAITYYADGVKGRYTISRDNAKNTVYLQMNSLKPEDTEVYYCAVYQFTYAVFPAYWGQGSQVTVSS | low polyreactivity |
| QVQLQESGGGLVLAGGSLRLSCAASGSISAQAYMGWDRQAPGKEREHVAGINYGDNTNYADSVKGRFTISRDNEHRVSADEQPETGRYRGVLLRGFLELFYYYIYWGQGTQVTVSS | high polyreactivity |
| QVQLQESGGGLVLAGGSLRLSCSASGNISVYGSMGWYRQSPGKEREFVATIDPGTNTNYADSVKDRFTISRDYAKNSVYLQMNSLKPEDTAVYYCAVEAGSDWPYRYWGQGTQVTVSS | low polyreactivity |
| QVQLQESGGGLVQACGSLCLICAASSYFSTYYSMGWYRKAPSKGRELVAAIDSGSSTNYADSVEGRFTISRDNAKNTVYLQMISLKPGDTAVYYCAAPWGHLVVHPYRGQGTQVTVSS | high polyreactivity |
| QVQLQESGGGLVQACGSLRLSCAASGYIFSHQYMGLYRQAPGKERELVASISPGATTNYADSVKGRLTISRDNAKNTVYLQMNSLKPEDTAVYYYAVYQILDRRLSYWGQGTQVTVSC | high polyreactivity |
| QVQLQESGGGLVQAGDSQRLSCAASGNIFRFTDRGWYRQAPGKERELVAAINAGSTTYYADSVKGRFTISRDNAKNTVYLQMNSLKPEDTAVYYCAVYYLGSGTFGYWGQGAQVTVSS | high polyreactivity |
| QVQLQESGGGLVQAGGCLSCTASGTIFGQGDMGWYRPAPGKERELVATINDGASTYYADSVKGRFTISRDKAKNTVYLQKNSLNQDDTAVYYCAVFTDITTYFGYWGQGTQVTVSS | low polyreactivity |
| QVQLQESGGGLVQAGGGLRLSCAASGSILNQAPMGWYRQAPGKERELVATINEGSITNYADSVKGRFTISRDNAKNTVYLQMNSLKPEDTAVYYCAVNKYIGLDYHYWGQGTQVTVSS | low polyreactivity |
| QVQLQESGGGLVQAGGGLRLSCAASGTISGPHVMGWYRQAPGKEREFVAAINVGANTYYADNVKGRFTISRDNAKNTVYLQMNSLNPEDTAVYYCAAVYYGDIGHEYWGQGTQVTVSC | low polyreactivity |
| QVQLQESGGGLVQAGGSLCLSCAASSYFSTYYSMGSYRKAPSKGRELVAAIDSGSSTNYADSVEGRFTISRDNAKNTVYLQMNSLKPGDTAVYYCAARDDARRGFYYWGQGTQVTVSS | high polyreactivity |
| QVQLQESGGGLVQAGGSLLSCAASGTISWVDEMGWYRQAPGNERELVAGIAGGGNTNYADSVKGRFTISRDNAKNTVYLKMNSLDTAVYYCAVVGFGRGTHIYWGQGTQVTVSS | high polyreactivity |
| QVQLQESGGGLVQAGGSLLSCAASGTISWVDEMGWYRQAPGNERELVAGIAGGGNTNYADSVKGRFTISRDNAKNTVYLLMNSLDTAVYYCAVVGFGRGNHIYWGQGTQVTVSS | high polyreactivity |
| QVQLQESGGGLVQAGGSLLSCAASGTISYYREMGWYRQSPGKERELVAGIGVGTITYYADSVKGRFTISRDNAKNTVYLQMNSLKPEDTAVYYCAAHIDGNDSNAYWGQGTQVTVSS | low polyreactivity |
| QVQLQESGGGLVQAGGSLRLICAASGYISSWYPMGWYRQAPGKEREFVGTIAPGATTYYADSVKGRFTIIRDYEKNTVYLQMNSLKPEDTAVYYCAAGPENNDFYSYWGQGTQVTVSS | low polyreactivity |
| QVQLQESGGGLVQAGGSLRLRCAASGTISDRAGMGWYRQAPAKNAIVATIDRGTNTNYADSVKGRFTISRDNAKNTVYLQMNSLKPEDTAVYNCAADGRYYIYLDYWGQGTQVTVSS | low polyreactivity |
| QVQLQESGGGLVQAGGSLRLSCAASGNIFEADIMGWNHQAQGKERELVASITDGGSTNYADSVKGRFTINRDNAKNNVYLQMNSLKPEDTAVYYCAAFAYPDIPTYFDYDIFTYWGQGTQVTVSS | high polyreactivity |
